Columns and labels:
[1] = molecular target: cynomolgus monkey beta-Klotho; assay: SPR binding affinity and kinetics to cynomolgus monkey beta-Klotho (Biacore 8K, anti-human Fc capture); parameters: species or system Cynomolgus monkey (Macaca fascicularis); conditions: 1:1 binding model, read-out: KD monkey KLB
Protocol: Binding affinity and kinetics were measured on a Biacore 8K instrument (GE Healthcare). For the affinity capture of the diluted mAb sample, an anti-human Fc antibody (human antibody capture kit, GE Healthcare) was immobilized on all eight channels of a series S CM5 sensor chip (GE Healthcare) to approximately 10.000 RU. The anti-beta-Klotho antibodies were diluted into HBS-EP+ assay buffer (GE Healthcare) to 0.04 μg/mL. The antibodies were injected in the sample compartment, whereas the reference compartment was used without captured antibody. […] For the antigen inject the flow rate was adjusted to 60 μL/min with an association time of 180 sec and a dissociation time of 1800 sec. The maximum binding signal of beta-Klotho was in the range of 30 RU. At the end of each cycle an inject of regeneration solution, supplied with human antibody capture kit (GE Healthcare), supplemented with 10% non-specific binding reducer (GE Healthcare), for 1 min at 30 μL/min to remove antibody and antigen was performed. Binding kinetics data were evaluated with a 1:1 binding model using the Biacore 8K Evaluation Software version 1.1.1.7442 (GE Healthcare).
For interaction analysis with human beta-klotho, mAbs were captured via an anti-human Fc antibody immobilized on a series S CM5 sensor chip (human antibody capture kit, GE Healthcare). […] Binding kinetics data were evaluated with a 1:1 binding model using the Biacore 8K Evaluation Software version 1.1.1.7442 (GE Healthcare). For interaction analysis with Cynomolgus monkey beta-klotho, mAbs were captured via an anti-human Fc antibody immobilized on a series S CM5 sensor chip (human antibody capture kit, GE Healthcare). […] Binding kinetics data were evaluated with a 1:1 binding model using the Biacore 8K Evaluation Software version 1.1.1.7442 (GE Healthcare). Exemplary sensorgrams for the interaction are shown in FIG. 7 (human KLB) and 8 (monkey KLB), as well as in Table G.

[2] = molecular target: T1, human beta-Klotho (Homo sapiens, UniProt Q86Z14); assay: SPR analysis of the active fraction of stressed antibodies; type: binding; conditions: 21 days
T1 sequence (Q86Z14 1-1044): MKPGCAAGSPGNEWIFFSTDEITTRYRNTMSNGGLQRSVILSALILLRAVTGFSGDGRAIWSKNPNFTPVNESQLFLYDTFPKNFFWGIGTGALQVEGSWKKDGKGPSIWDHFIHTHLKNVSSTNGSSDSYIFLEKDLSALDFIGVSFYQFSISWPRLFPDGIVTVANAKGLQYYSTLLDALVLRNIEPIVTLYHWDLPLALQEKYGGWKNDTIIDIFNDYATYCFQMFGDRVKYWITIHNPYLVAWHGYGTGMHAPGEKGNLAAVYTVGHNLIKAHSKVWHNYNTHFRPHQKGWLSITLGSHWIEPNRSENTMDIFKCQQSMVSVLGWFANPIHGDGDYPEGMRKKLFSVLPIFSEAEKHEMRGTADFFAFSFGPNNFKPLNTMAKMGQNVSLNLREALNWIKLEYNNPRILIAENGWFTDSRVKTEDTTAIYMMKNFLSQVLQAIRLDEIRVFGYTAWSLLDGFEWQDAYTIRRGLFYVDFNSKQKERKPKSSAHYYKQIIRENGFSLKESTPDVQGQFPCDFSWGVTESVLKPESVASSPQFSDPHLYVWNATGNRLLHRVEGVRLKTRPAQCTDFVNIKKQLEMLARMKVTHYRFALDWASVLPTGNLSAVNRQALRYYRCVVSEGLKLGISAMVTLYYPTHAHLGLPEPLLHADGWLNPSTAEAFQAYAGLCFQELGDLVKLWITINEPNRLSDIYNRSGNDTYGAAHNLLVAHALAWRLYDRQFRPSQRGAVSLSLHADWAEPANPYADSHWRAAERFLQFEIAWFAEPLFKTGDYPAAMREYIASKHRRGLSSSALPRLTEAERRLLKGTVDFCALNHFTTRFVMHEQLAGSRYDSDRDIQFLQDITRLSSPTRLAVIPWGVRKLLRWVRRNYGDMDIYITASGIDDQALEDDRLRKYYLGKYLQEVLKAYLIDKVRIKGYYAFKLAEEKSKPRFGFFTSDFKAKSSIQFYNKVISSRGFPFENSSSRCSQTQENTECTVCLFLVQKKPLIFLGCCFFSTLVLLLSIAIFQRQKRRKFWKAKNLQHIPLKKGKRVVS
Protocol: Analysis of the active fraction of stressed antibodies was performed by SPR using the same Fc capture assay set up as described above for the affinity determination. In this case the association and dissociation times for human beta-Klotho were set to 240 sec and 300 sec, respectively. The active fraction of the samples was calculated as the ratio of binding signal for human beta-Klotho and the Fc capture signal of the antibody, normalized to the active fraction of the unstressed control samples. Mean values from three experiments were calculated.

[3] = Intact mass spectrometry (IMS); type: physicochemical; conditions: for intact mass Identity confirmed / intact mass Peak intensity post stress: 21 days
Protocol: Protein integrity was analyzed by LC-MS. […] Reversed phase (RP) chromatography was done using a PLRP-S 1000A 5 μm, 50×2.1 mm (Agilent) with a guard column PLRP-S 300A 5 μm, 3×5 mm (Agilent) at 200 μL/min and 80° C. column temperature. Eluents were buffer A containing LC water and 0.1% formic acid as well as buffer B containing 90% acetonitrile, 10% LC water and 0.1% formic acid. 1 μg of protein was injected onto the column and eluted using linear gradient from 0 to 17 minutes with increasing acetonitrile concentration. Data was analyzed using MassHunter Bioconfirm B.06 (Agilent). Molecular masses were calculated based on the amino acid sequences of the proteins using GPMAW software version 10 (Lighthouse data).

[4] = Dynamic light scattering (DLS) and diffusion interaction parameter (kD); type: physicochemical
Protocol: Dynamic light scattering (DLS) was performed using a DynaPro Plate Reader (Wyatt Technology). The samples were measured in 384 well assay plates (Corning) at 25° C. Data were evaluated by cumulant fitting using Dynamics Software version 7.7.0.125 (Wyatt Technology).
Colloidal stability of the samples was assessed by measuring the diffusion interaction parameter (kD) at 20° C. using a DynaPro Plate Reader (Wyatt Technology). Before the measurements the samples were buffer exchanged against 5 L of 10 mmol/L Histidine pH 6.0 by dialysis for 20 h with one buffer change using 1 mL Float-A-Lyzer G2 devices with 3.5-5 kDa cut-off (Spectrum Labs). A dilution series from 1 to 4.5 mg/mL, in 0.5 mg/mL increments, was prepared in 10 mmol/L Histidine pH 6.0 and measured in 384 well assay plates (Corning).

Substance | Kd [1] | SPR rel. active fraction ([2]; pH 5, 40° C.) | SPR rel. active fraction ([2]; pH 6, 40° C.) | SPR rel. active fraction ([2]; pH 8, 40° C.) | Identity, correct pairing, intact mass, Identity confirmed [3] | intact mass Identity confirmed ([3]; pH 5, 40° C.) | intact mass Peak intensity post stress ([3]; pH 5, 40° C.) | intact mass Identity confirmed ([3]; pH 6, 40° C.) | intact mass Peak intensity post stress ([3]; pH 6, 40° C.) | intact mass Identity confirmed ([3]; pH 8, 40° C.) | intact mass Peak intensity post stress ([3]; pH 8, 40° C.) | Homogeneity DLS Hydrodynamic radius [4] | DLS Hydrodynamic radius ([4]; pH 5, 40° C., d 21) | DLS Hydrodynamic radius ([4]; pH 5, d 0) | DLS Hydrodynamic radius ([4]; pH 6, 40° C., d 21) | DLS Hydrodynamic radius ([4]; pH 6, d 0) | DLS Hydrodynamic radius ([4]; pH 8, 40° C., d 21) | DLS Hydrodynamic radius ([4]; pH 8, d 0)
16H7: anti FGFR1c/KLB monoclonal antibody of WO 2011/071783, IgG2 backbone; HC SEQ ID NO: 1, LC SEQ ID NO: 2 [Ab 16H7] | 0.428 nM |  |  |  |  |  |  |  |  |  |  |  |  |  |  |  |  | 
Ab0331: IgG4 PE; 16H7 VL (N25S, D49S, D50E, D91E, N93E); 16H7 VH (M34V, I83T, D109E); HC SEQ ID NO: 38, LC SEQ ID NO: 45 | 3.49 nM | 97% | 91% | 78% | Yes | Yes | 84% | Yes | 97% | Yes | 75% | 5.3 nm | 5.3 nm | 5.5 nm | 5.2 nm | 5 nm | 5.9 nm | 5.6 nm
Ab0335: IgG4 PE; 16H7 VL (N25S, D49S, D50A, D91E, N93E); 16H7 VH (M34V, I83T, D109E); HC SEQ ID NO: 39, LC SEQ ID NO: 46 | 2.95 nM | 93% | 92% | 73% | Yes | Yes | 84% | Yes | 85% | Yes | 53% | 5.2 nm | 5.2 nm | 5.3 nm | 5.1 nm | 5.2 nm | 6.1 nm | 5.3 nm
Ab0351: IgG4 PE; 16H7 VL (N25S, D49E, D50E, D91E, N93E); 16H7 VH (M34V, I83T, D109E); HC SEQ ID NO: 40, LC SEQ ID NO: 47 |  | 95% | 92% | 75% | Yes | Yes | 90% | Yes | 96% | Yes | 77% | 5.3 nm | 5.6 nm | 5.4 nm | 5.2 nm | 5.2 nm | 8.1 nm | 5.6 nm
Ab0428: IgG1 NNAS; 16H7 VL (N25S, D49S, D50E, D91E, N93E); 16H7 VH (M34V, I83T, D109E); HC SEQ ID NO: 41, LC SEQ ID NO: 48 | 2.54 nM | 94% | 93% | 79% | Yes | Yes | 84% | Yes | 87% | Yes | 56% | 5.4 nm | 5.5 nm | 5.4 nm | 5.3 nm | 5.4 nm | 6.1 nm | 5.4 nm
Ab0429: IgG1 NNAS; 16H7 VL (N25S, D49S, D50A, D91E, N93E); 16H7 VH (M34V, I83T, D109E); HC SEQ ID NO: 42, LC SEQ ID NO: 49 | 2.2 nM | 94% | 92% | 77% | Yes | Yes | 95% | Yes | 83% | Yes | 68% | 5.3 nm | 5.4 nm | 5.4 nm | 5.5 nm | 5.4 nm | 6.3 nm | 5.3 nm

Source: patent publication US20250115669A1, “FGFR1/KLB Targeting Agonistic Antigen-Binding Proteins and Conjugates Thereof with GLP-1R Agonistic Peptides” (SANOFI, priority 2020, published 2025)
